Data reported in PMC8784115 (Proceedings of the National Academy of Sciences of the …, 2022).
Each block holds one binder with its values, some of them ahead of it. No end group written: not given here. Alexa594 = Alexa594 fluorescent dye

How the values were obtained:
[1] = biological target: T1, TAZ1 domain of CREB-binding protein (CBP), mouse CBP residues 340 to 439 (mouse, UniProt P45481 340-439); test: fluorescence polarisation
[2] = biological target: T1, TAZ1 domain of CREB-binding protein …; test: NMR titration
[3] = biological target: preformed complex of 15N-TAZ1 and HIF-1α (mouse | human, UniProt P45481 340-439; Q16665 776-826); test: NMR titration
preformed complex of 15N-TAZ1 and HIF-1α, sequence (P45481 340-439, one chain of several): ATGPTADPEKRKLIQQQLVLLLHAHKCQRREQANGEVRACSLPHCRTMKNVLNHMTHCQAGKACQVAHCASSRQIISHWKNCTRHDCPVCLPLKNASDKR

[4] = biological target: T1, TAZ1 domain of CREB-binding protein …; test: fluorescence polarisation; remark: listed apart in the source
[5] = biological target: T1, TAZ1 domain of CREB-binding protein …; test: fluorescence polarisation; remark: listed apart in the source

T1 sequence (P45481 340-439): as the sequence (P45481 340-439, one chain of several) above

B1: Alexa594-labeled CITED 216-269 peptide (labelled at C261) (peptide)
chain: GSHMSNVIDTDFIDEEVLMSLVIEMGLDRIKELPELWLGQNEFDFMTDFVC(Alexa594)KQQPSRVS
binding result [1]: binds

B2: CITED APAA peptide (CITED2 216-269 with the nonproline residues of the LPEL motif mutated to alanine) (peptide)
chain: GSHMSNVIDTDFIDEEVLMSLVIEMGLDRIKEAPAAWLGQNEFDFMTDFVCKQQPSRVS
binding result [2]: binds
binding result [3]: binds

Now from value to binder:

binding result [4]: binds
B3: Alexa594-labeled CITED APAA peptide (labelled at C261) (peptide)
chain: GSHMSNVIDTDFIDEEVLMSLVIEMGLDRIKEAPAAWLGQNEFDFMTDFVC(Alexa594)KQQPSRVS

binding result [5]: binds
B4: Alexa594-labeled HIF-1α peptide (C800V, labelled at C780) (peptide)
chain: GSHMSDLAC(Alexa594)RLLGQSMDESGLPQLTSYDVEVNAPIQGSRNLLQGEELLRALDQVN
